Article PMC9410543

B1: unnamed (parent)
chain 1: VGDDSGGFSTTVSTEQNVPDPQVGITTMKDLKGKANRGKMDVSGVQAPVGAITTIEDPVLAKKVPETFPELKPGESRHTSDHMSIYKFMGRSHFLCTFTFNSNNKEYTFPITLSSTSNPPHGLPSTLRWFFNLFQLYRGPLDLTIIITGATDVDGMAWFTPVGLAVDTPWVEKESALSIDYKTALGAVRFNTRRTGNIQIRLPWYSYLYAVSGALDGLGDKTDSTFGLVSIQIANYNHSDEYLSFSCYLSVTEQSEFYFPRAPLNSNAMLSTESMMSRIAAGDLESSVDDPRSEEDKRFESHIECRKPYKELRLEVGKQRLKYAQEELSNEVLPPPRKMKGLFSQ
chain 2: MAVSESQLKKMVSKYKYRDLTVRETVNVITLYKDLKPVLDSYVFNDGSSRELMNLTGTIPVPYRGNTYNIPICLWLLDTYPYNPPICFVKPTSSMTIKTGKHVDANGKIYLPYLHEWKHPQSDLLGLIQVMIVVFGDEPPVFSRPISASYPPYQATGPPNTSYMPGMPGGISPYPSGYPPNPSGYPGCPYPPGGPYPATTSSQYPSQPPVTTVGPSRDGTISEDTIRASLISAVSDKLRWRMKEEMDRAQAELNALKRTEEDLKKGHQKLEEMVTRLDQEVAEVDKNIELLKKKDEELSSALEKMENQSENNDIDEVIIPTAPLYKQILNLYAEENAIEDTIFYLGEALRRGVIDLDVFLKHVRLLSRKQFQLRALMQKARKTAGLSDLY
B2: unnamed (parent)
chain 1: B1 chain 1
chain 2: not shown
B3: unnamed (parent)
chain 1: B1 chain 1
chain 2: MATFISVQLKKTSEVDLAKPLVKFIQQTYPSGGEEQAQYCRAAEELSKLRRAAVGRPLDKHEGALETLLRYYDQICSIEPKFPFSENQICLTFTWKDAFDKGSLFGGSVKLALASLGYEKSCVLFNCAALASQIAAEQNLDNDEGLKIAAKHYQFASGAFLHIKETVLSALSREPTVDISPDTVGTLSLIMLAQAQEVFFLKATRDKMKDAIIAKLANQAADYFGDAFKQCQYKDTLPKEVFPVLAAKHCIMQANAEYHQSILAKQQKKFGEEIARLQHAAELIKTVASRYDEYVNVKDFSDKINRALAAAKKDNDFIYHDRVPDLKDLDPIGKATLVKSTPVNVPISQKFTDLFEKMVPVSVQQSLAAYNQRKADLVNRSIAQMREATTLANGVLASLNLPAAIEDVSGDTVPQSILTKSRSVIEQGGIQTVDQLIKELPELLQRNREILDESLRLLDEEEATDNDLRAKFKERWQRTPSNELYKPLRAEGTNFRTVLDKAVQADGQVKECYQSHRDTIVLLCKPEPELNAAIPSANPAKTMQGSEVVNVLKSLLSNLDEVKKEREGLENDLKSVNFDMTSKFLTALAQDGVINEEALSVTELDRVYGGLTTKVQESLKKQEGLLKNIQVSHQEFSKMKQSNNEANLREEVLKNLATAYDNFVELVANLKEGTKFYNELTEILVRFQNKCSDIVFARKTERDELLKDLQQSIAREPSAPSIPTPAYQSSPAGGHAPTPPTPAPRTMPPTKPQPPARPPPPVLPANRAPSATAPSPVGAGTAAPAPSQTPGSAPPPQAQGPPYPTYPGYPGYCQMPMPMGYNPYAYGQYNMPYPPVYHQSPGQAPYPGPQQPSYPFPQPPQQSYYPQQ

Variants of: B1
Assay: protein-fragment complementation assay (split Gaussia luciferase, GLuc2 bait / GLuc1 prey)
Conditions: with partner chain of the complex shown;; read off a plot
chain 1 Y309A K310A E311A L312A showed a response (Log2 normalized LU) of 4.4.

Variants of: B2
Assay: as above
Conditions: with partner chain of the complex shown;; read off a plot
For chain 1 Y309A K310A E311A L312A, the response (Log2 normalized LU) was 3.

Variants of: B3
Assay: as above
Conditions: with partner chain of the complex shown;; read off a plot
chain 1 Y309A K310A E311A L312A showed a response (Log2 normalized LU) of 4.7.
